# Experimental data reported in PMC6125123.
# Target: HA-K^b (H-2K^b heavy chain with an N-terminal HA tag, no GFP) (mus musculus)
# Test: two-hybrid antibody micropattern assay (co-capture on live cells, confocal fluorescence microscopy); HA-tagged bait captured on printed anti-HA (12CA5) micropatterns on glass; GFP-tagged prey read out; co-transduced STF1 cells, 25°C overnight, then shifted to 37°C for 3-4 hr to dissociate …; no peptide
# HA-K^b (H-2K^b heavy chain with an N-terminal HA tag, no GFP) (mus musculus), sequence (P01901 22-369): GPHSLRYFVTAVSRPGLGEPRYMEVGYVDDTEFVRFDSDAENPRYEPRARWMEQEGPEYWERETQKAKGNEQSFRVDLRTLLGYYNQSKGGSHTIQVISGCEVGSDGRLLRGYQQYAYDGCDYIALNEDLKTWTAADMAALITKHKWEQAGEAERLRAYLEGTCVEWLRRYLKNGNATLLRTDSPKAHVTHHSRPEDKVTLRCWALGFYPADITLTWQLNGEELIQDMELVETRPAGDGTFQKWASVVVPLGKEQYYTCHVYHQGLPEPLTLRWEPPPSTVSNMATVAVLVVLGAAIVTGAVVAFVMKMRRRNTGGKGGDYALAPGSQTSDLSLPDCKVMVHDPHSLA
substance,measurement,value
"K^b-GFP (H-2K^b heavy chain with GFP fused to the cytoplasmic tail, no HA tag) (natural protein)",ratio of GFP fluorescence intensity on pattern elements over total fluorescence intensity (background 1.1),1.3
